Literature values as cited in patent US20210100896A1, “METHODS AND COMPOSITIONS FOR STIMULATING THE IMMUNE SYSTEM” (University of Miami, priority 2017, published 2021).

System: tumor
Conditions: tumor bearing mice

B1: Flt3L: cytokine that promotes hematopoietic progenitor commitment to the DC lineage (protein, UniProt P49771 27-235, looked up)
Fms-related tyrosine kinase 3 …: TQDCSFQHSPISSDFAVKIRELSDYLLQDYPVTVASNLQDEELCGGLWRLVLAQRWMERLKTVAGSKMQGLLERVNTEIHFVTKCAFQPPPSCLRFVQTNISRLLQETSEQLVALKPWITRQNFSRCLELQCQPDSSTLPPPWSPRPLEATAPTAPQPPLLLLLLLPVGLLLLAAAWCLHWQRTRRRTPRPGEQVPPVPSPQDLLLVEH
intratumoral accumulation of DC and tumor inhibition: enhanced intratumoral accumulation of DC and tumor inhibition
